Results published in paper PMC9352680, “A comprehensive thermodynamic model for RNA binding by the Saccharomyces cerevisiae Pumilio protein PUF4”.
Where a chain is given by its changes, count along the chain named. Names may count otherwise.

Biological target: T1, PUF4 RNA-binding domain (Saccharomyces cerevisiae, UniProt P25339 537-888)
T1 sequence: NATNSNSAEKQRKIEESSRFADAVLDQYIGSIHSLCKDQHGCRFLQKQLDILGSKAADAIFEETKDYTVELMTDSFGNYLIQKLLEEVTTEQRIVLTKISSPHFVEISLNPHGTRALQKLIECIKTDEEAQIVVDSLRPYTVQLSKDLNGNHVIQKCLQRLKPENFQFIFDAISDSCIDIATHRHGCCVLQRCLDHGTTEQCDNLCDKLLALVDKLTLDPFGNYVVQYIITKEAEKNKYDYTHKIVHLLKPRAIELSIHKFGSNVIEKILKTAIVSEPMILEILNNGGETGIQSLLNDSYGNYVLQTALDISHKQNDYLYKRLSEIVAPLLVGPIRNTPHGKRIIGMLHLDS
Assay: Mg; RNA-MaP; 20 mM Na-HEPES pH 7.4, 30 mM KOAc, 0.75 mM MgCl2, 0.1% Tween-20, 5% glycerol, 0.1 mg/mL BSA, 2 mM DTT; 25 C; 0.0125-409.6 nM protein
Details: tags: N-His6-TEV cleaved; C-SNAP kept, Cy3B-labelled; label: tethered on chip by stalled RNA polymerase

B1: Ie_S2_P5E.1_K5.1_C5.1_H5.1_A5.1_[+7CTCT]_F5.1_T5.1 (ssRNA)
RNA: UUUGAUUAAUAUGAUAUCGUUCUUUCUUGUAUUACUCUUUAUUCUUUCUCGAUAUCAUAUUAAUCUUU
  Kd: 51.9 nM

B2: Ie_S2_P5E.1_K5.1_C5.1_H5.1_A5.1_F5.1_[+9TCTC]_T5.1 (ssRNA)
RNA: B1 RNA with C35U, C37U, U38C, U40C
  Kd: 10.2 nM

B3: Ie_S2_P5E.1_K5.1_C5.1_H5.1_A5.1_[+7TCTC]_F5.1_T5.1 (ssRNA)
RNA: B1 RNA with C35U, U36C, C37U, U38C
  Kd: 18.3 nM

B4: Ie_S2_P5E.1_K5.1_C5.1_H5.1_A5.1_[+7TTCC]_F5.1_T5.1 (ssRNA)
RNA: B1 RNA with C35U, U38C
  Kd: 10.1 nM

B5: Ie_S2_P5E.1_K5.1_C5.1_H5.1_A5.1_F5.1_[+8TTCC]_T5.1 (ssRNA)
RNA: B1 RNA with C35U, C37U, U38C, U39C
  Kd: 9.45 nM

B6: Ie_S2_P5E.1_K5.1_C5.1_H5.1_A5.1_F5.1_[+9CCCT]_T5.1 (ssRNA)
RNA: B1 RNA with C35U, U38C, U39C
  Kd: 8.29 nM

B7: Ie_S2_P5E.1_K5.1_C5.1_H5.1_A5.1_[+7CCCT]_F5.1_T5.1 (ssRNA)
RNA: B1 RNA with U36C
  Kd: 74 nM

B8: Ie_S2_P5E.1_K5.1_C5.1_H5.1_A5.1_F5.1_[+8CCCT]_T5.1 (ssRNA)
RNA: B1 RNA with C35U, U36C, U38C
  Kd: 11.6 nM

B9: Ie_S2_P5E.1_K5.1_C5.1_H5.1_A5.1_F5.1_[+9CCTC]_T5.1 (ssRNA)
RNA: B1 RNA with C35U, U38C, U40C
  Kd: 16.4 nM

B10: Ie_S2_P5E.1_K5.1_C5.1_H5.1_A5.1_[+7CCTC]_F5.1_T5.1 (ssRNA)
RNA: B1 RNA with U36C, C37U, U38C
  Kd: 49 nM

B11: Ie_S2_P5E.1_K5.1_C5.1_H5.1_A5.1_F5.1_[+10TTCC]_T5.1 (ssRNA)
RNA: B1 RNA with C35U, C37A, U40C, A41C
  Kd: 2.02 nM

B12: Ie_S2_P5E.1_K5.1_C5.1_H5.1_A5.1_F5.1_[+8CCTC]_T5.1 (ssRNA)
RNA: B1 RNA with C35U, U36C, U39C
  Kd: 15.8 nM

B13: Ie_S2_P5E.1_K5.1_C5.1_H5.1_A5.1_F5.1_[+9TTCC]_T5.1 (ssRNA)
RNA: B1 RNA with C35U, C37U, U39C, U40C
  Kd: 13.2 nM

B14: Ie_S2_P5E.1_K5.1_C5.1_H5.1_A5.1_[+7CTCTC]_F5.1_T5.1 (ssRNA)
RNA: UUUGAUUAAUAUGAUAUCGUUCUUUCUUGUAUUACUCUCUUAUUCUUUCUCGAUAUCAUAUUAAUCUUU
  Kd: 47.3 nM

B15: Ie_S2_P5E.1_K5.1_C5.1_H5.1_A5.1_F5.1_[+9CTCTC]_T5.1 (ssRNA)
RNA: B14 RNA with C35U, U41C
  Kd: 13.7 nM

B16: Ie_S2_P5E.1_K5.1_C5.1_H5.1_A5.1_[+7CCTCT]_F5.1_T5.1 (ssRNA)
RNA: B14 RNA with U36C, C37U, U38C, C39U
  Kd: 57.6 nM

B17: Ie_S2_P5E.1_K5.1_C5.1_H5.1_A5.1_F5.1_[+9CCTCT]_T5.1 (ssRNA)
RNA: B14 RNA with C35U, U38C, C39U, U40C
  Kd: 7.72 nM

B18: Ie_S2_P5E.1_K5.1_C5.1_H5.1_A5.1_F5.1_[+9TTCCT]_T5.1 (ssRNA)
RNA: B14 RNA with C35U, C37U, U40C
  Kd: 7.79 nM

B19: Ie_S2_P5E.1_K5.1_C5.1_H5.1_A5.1_[+7TTCCT]_F5.1_T5.1 (ssRNA)
RNA: B14 RNA with C35U, U38C, C39U
  Kd: 7.84 nM

B20: Ie_S2_P5E.1_K5.1_C5.1_H5.1_A5.1_F5.1_[+10TTCCT]_T5.1 (ssRNA)
RNA: B14 RNA with C35U, C37A, C39U, U40C, U41C, A42U
  Kd: 1.84 nM

B21: Ie_S2_P5E.1_K5.1_C5.1_H5.1_A5.1_F5.1_[+9CCCTT]_T5.1 (ssRNA)
RNA: B14 RNA with C35U, U38C
  Kd: 12.8 nM

B22: Ie_S2_P5E.1_K5.1_C5.1_H5.1_A5.1_F5.1_[+9TCTCT]_T5.1 (ssRNA)
RNA: B14 RNA with C35U, C37U, U38C, C39U, U40C
  Kd: 6.98 nM

B23: Ie_S2_P5E.1_K5.1_C5.1_H5.1_A5.1_F5.1_[+8CTCTC]_T5.1 (ssRNA)
RNA: B14 RNA with C35U, U36C, C37U, U38C, C39U, U40C
  Kd: 13.1 nM

B24: Ie_S2_P5E.1_K5.1_C5.1_H5.1_A5.1_[+7TCTCT]_F5.1_T5.1 (ssRNA)
RNA: B14 RNA with C35U, U36C, C37U, U38C, C39U
  Kd: 17.2 nM

B25: Ie_S2_P5E.1_K5.1_C5.1_H5.1_A5.1_F5.1_[+8CCCTT]_T5.1 (ssRNA)
RNA: B14 RNA with C35U, U36C, U38C, C39U
  Kd: 15.2 nM

B26: Ie_S2_P5E.1_K5.1_C5.1_H5.1_A5.1_F5.1_[+10TCTCT]_T5.1 (ssRNA)
RNA: B14 RNA with C35U, C37A, U41C, A42U
  Kd: 2.21 nM

B27: Ie_S2_P5E.1_K5.1_C5.1_H5.1_A5.1_F5.1_[+8C]_T5.1 (ssRNA)
RNA: UUUGAUUAAUAUGAUAUCGUUCUUUCUUGUAUUAUCUAUUCUUUCUCGAUAUCAUAUUAAUCUUU
  Kd: 11.6 nM

B28: Ie_S2_P5E.1_K5.1_C5.1_H5.1_A5.1_F5.1_[+10T]_T5.1 (ssRNA)
RNA: B27 RNA with C36U, U37A, A38U
  Kd: 1.76 nM

B29: Ib_S2_P3E.1_K3.1_C3.1_H3.1_[G2A]_[T3C]_A3.1_F3.1_T3.1 (ssRNA)
RNA: UUUGAUUAAUAUGAUAUCGUUCUUUCUUACAUAUAUUCUUUCUCGAUAUCAUAUUAAUCUUU
  Kd: > 2300 nM

B30: Ic_S2_P3E.1_K3.1_C3.1_H3.1_A3.1_[T5C]_F3.1_T3.1 (ssRNA)
RNA: B29 RNA with A29G, C30U, U32C
  Kd: 1.76 nM

B31: Ib_S2_P3E.1_K3.1_C3.1_H3.1_[G2T]_[A4T]_A3.1_F3.1_T3.1 (ssRNA)
RNA: B29 RNA with A29U, C30U, A31U
  Kd: > 2300 nM

B32: Ib_S2_P3E.1_K3.1_C3.1_H3.1_[G2C]_[A4C]_A3.1_F3.1_T3.1 (ssRNA)
RNA: B29 RNA with A29C, C30U, A31C
  Kd: 2150 nM

B33: Ib_S2_P3E.1_K3.1_C3.1_H3.1_[G2A]_[A4T]_A3.1_F3.1_T3.1 (ssRNA)
RNA: B29 RNA with C30U, A31U
  Kd: > 2300 nM

B34: Ib_S2_P3E.1_K3.1_C3.1_H3.1_[G2C]_[A4T]_A3.1_F3.1_T3.1 (ssRNA)
RNA: B29 RNA with A29C, C30U, A31U
  Kd: 1670 nM

## ACAAACCUUCCUCGUAUAUAUAACAAAC (ssRNA) [Ie_S3_P3E.2_K3.1_C3.2_H3.1_[+1CCTC]_A3.1_F3.1_T3.2]
  Kd: 565 nM

B35: Ie_S2_P5E.1_K5.1_C5.1_H5.1_A5.1_F5.1_[+9CTT]_T5.1 (ssRNA)
RNA: UUUGAUUAAUAUGAUAUCGUUCUUUCUUGUAUUAUUCUUAUUCUUUCUCGAUAUCAUAUUAAUCUUU
  Kd: 10.5 nM

B36: Ie_S2_P5E.1_K5.1_C5.1_H5.1_A5.1_[+7TCT]_F5.1_T5.1 (ssRNA)
RNA: B35 RNA with U36C, C37U
  Kd: 15.8 nM

B37: Ie_S2_P5E.1_K5.1_C5.1_H5.1_A5.1_[+7CTT]_F5.1_T5.1 (ssRNA)
RNA: B35 RNA with U35C, C37U
  Kd: 25.2 nM

B38: Ie_S2_P5E.1_K5.1_C5.1_H5.1_A5.1_F5.1_[+9CCT]_T5.1 (ssRNA)
RNA: B35 RNA with U38C
  Kd: 7.29 nM

B39: Ie_S2_P5E.1_K5.1_C5.1_H5.1_A5.1_F5.1_[+8CCC]_T5.1 (ssRNA)
RNA: B35 RNA with U36C, U38C
  Kd: 12.8 nM

B40: Ie_S2_P5E.1_K5.1_C5.1_H5.1_A5.1_F5.1_[+9TCC]_T5.1 (ssRNA)
RNA: B35 RNA with C37U, U38C, U39C
  Kd: 15.6 nM

B41: Ie_S2_P5E.1_K5.1_C5.1_H5.1_A5.1_F5.1_[+10TTC]_T5.1 (ssRNA)
RNA: B35 RNA with C37A, A40C
  Kd: 2.01 nM

B42: Ie_S2_P5E.1_K5.1_C5.1_H5.1_A5.1_F5.1_[+8TTC]_T5.1 (ssRNA)
RNA: B35 RNA with C37U, U38C
  Kd: 7.64 nM

B43: Ie_S2_P5E.1_K5.1_C5.1_H5.1_A5.1_F5.1_[+9TTC]_T5.1 (ssRNA)
RNA: B35 RNA with C37U, U39C
  Kd: 14.1 nM

B44: Ie_S2_P5E.1_K5.1_C5.1_H5.1_A5.1_F5.1_[+9CTC]_T5.1 (ssRNA)
RNA: B35 RNA with U39C
  Kd: 22.6 nM

B45: Ie_S2_P5E.1_K5.1_C5.1_H5.1_A5.1_F5.1_[+8TTT]_T5.1 (ssRNA)
RNA: B35 RNA with C37U
  Kd: 8.05 nM

B46: Ie_S2_P5E.1_K5.1_C5.1_H5.1_A5.1_F5.1_[+10TTT]_T5.1 (ssRNA)
RNA: B35 RNA with C37A, A40U
  Kd: 1.17 nM

B47: Ie_S2_P5E.1_K5.1_C5.1_H5.1_A5.1_F5.1_[+10TCT]_T5.1 (ssRNA)
RNA: B35 RNA with C37A, U39C, A40U
  Kd: 3.7 nM

## ACAAACCUUUCGUAUAUAUAACAAAC (ssRNA) [Ie_S3_P3E.2_K3.1_C3.2_H3.1_[+1TC]_A3.1_F3.1_T3.2]
  Kd: 927 nM

B48: Ie_S2_P5E.1_K5.1_C5.1_H5.1_A5.1_F5.1_[+8TC]_T5.1 (ssRNA)
RNA: UUUGAUUAAUAUGAUAUCGUUCUUUCUUGUAUUAUUCUAUUCUUUCUCGAUAUCAUAUUAAUCUUU
  Kd: 10.3 nM

B49: Ie_S2_P5E.1_K5.1_C5.1_H5.1_A5.1_F5.1_[+10TT]_T5.1 (ssRNA)
RNA: B48 RNA with C37A, A39U
  Kd: 2.29 nM
